Data from US20210363259A1 (Biogen, published 2021).

Key:
integrin αvβ6 [1] = target: T1, integrin αvβ6 (human, UniProt P06756 31-1048; P18564 22-788); experiment: potency assay, binding relative to reference standard; stability sample, 3 months at 2-8° C.
T1 construct: also called the antigen

integrin αvβ6 [2] = target: T1, integrin αvβ6; experiment: potency assay, binding relative to reference standard; stability sample, 6 months at 2-8° C.
integrin αvβ6 [3] = target: T1, integrin αvβ6; experiment: potency assay, binding relative to reference standard; stability sample, 9 months at 2-8° C.
integrin αvβ6 [4] = target: T1, integrin αvβ6; experiment: potency assay, binding relative to reference standard; stability sample, 12 months at 2-8° C.
integrin αvβ6 [5] = target: T1, integrin αvβ6; experiment: potency assay, binding relative to reference standard; stability sample, 24 months at 2-8° C.
integrin αvβ6 [6] = target: T1, integrin αvβ6; experiment: DELFIA blocking assay, binding relative to reference standard; stability sample, 1 month at 2-8° C.
integrin αvβ6 [7] = target: T1, integrin αvβ6; experiment: DELFIA blocking assay, binding relative to reference standard; stability sample, 0 months at 2-8° C.
integrin αvβ6 [8] = target: T1, integrin αvβ6; experiment: DELFIA blocking assay, binding relative to reference standard; stability sample, 18 months at 2-8° C.

T1 sequence (P06756 31-1048, chain 1 of 2): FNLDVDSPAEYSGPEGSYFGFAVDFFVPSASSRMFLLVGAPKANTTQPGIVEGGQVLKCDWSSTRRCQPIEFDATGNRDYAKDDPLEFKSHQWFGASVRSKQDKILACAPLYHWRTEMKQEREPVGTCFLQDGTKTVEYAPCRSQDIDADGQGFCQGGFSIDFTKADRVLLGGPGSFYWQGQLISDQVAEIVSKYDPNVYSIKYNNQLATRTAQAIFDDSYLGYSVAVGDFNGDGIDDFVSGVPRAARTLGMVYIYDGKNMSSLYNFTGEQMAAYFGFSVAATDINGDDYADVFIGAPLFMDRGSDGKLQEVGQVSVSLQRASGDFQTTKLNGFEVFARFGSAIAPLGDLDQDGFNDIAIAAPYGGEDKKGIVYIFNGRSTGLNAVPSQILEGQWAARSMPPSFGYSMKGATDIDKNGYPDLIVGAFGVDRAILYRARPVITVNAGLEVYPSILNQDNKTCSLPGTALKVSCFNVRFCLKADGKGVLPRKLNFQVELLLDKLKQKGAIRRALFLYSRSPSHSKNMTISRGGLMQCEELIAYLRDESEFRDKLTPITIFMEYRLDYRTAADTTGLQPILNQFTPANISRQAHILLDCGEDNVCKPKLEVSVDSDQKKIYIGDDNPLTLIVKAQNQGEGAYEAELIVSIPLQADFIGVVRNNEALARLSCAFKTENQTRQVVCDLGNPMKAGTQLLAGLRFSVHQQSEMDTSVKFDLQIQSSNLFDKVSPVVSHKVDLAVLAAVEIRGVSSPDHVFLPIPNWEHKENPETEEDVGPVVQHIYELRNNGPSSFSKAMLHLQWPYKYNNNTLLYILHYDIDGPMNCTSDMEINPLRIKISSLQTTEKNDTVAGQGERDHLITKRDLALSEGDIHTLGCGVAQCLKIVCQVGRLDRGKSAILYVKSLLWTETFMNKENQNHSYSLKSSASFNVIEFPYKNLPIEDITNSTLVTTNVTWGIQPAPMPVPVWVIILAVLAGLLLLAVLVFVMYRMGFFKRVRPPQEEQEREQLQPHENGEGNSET
T1 sequence (P18564 22-788, chain 2 of 2): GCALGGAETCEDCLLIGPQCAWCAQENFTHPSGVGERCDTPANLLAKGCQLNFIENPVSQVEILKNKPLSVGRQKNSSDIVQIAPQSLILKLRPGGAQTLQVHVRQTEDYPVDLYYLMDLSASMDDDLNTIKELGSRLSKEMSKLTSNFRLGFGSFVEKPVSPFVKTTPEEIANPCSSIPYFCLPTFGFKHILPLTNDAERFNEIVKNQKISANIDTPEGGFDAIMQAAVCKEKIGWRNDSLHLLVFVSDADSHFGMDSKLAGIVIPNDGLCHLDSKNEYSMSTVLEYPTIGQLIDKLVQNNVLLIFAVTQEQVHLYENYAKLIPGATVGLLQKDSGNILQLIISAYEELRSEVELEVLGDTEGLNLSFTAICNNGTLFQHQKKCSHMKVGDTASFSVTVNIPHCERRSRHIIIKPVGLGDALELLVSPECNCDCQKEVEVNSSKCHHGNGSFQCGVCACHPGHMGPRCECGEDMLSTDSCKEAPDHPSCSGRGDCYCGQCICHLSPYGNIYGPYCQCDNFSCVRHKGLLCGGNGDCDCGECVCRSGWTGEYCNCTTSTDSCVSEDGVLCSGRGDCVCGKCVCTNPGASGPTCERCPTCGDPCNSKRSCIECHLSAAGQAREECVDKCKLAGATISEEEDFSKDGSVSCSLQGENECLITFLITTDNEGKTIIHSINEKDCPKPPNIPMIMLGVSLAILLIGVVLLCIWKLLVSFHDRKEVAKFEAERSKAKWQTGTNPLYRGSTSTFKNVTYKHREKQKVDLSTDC

B1: STX-100 (antibody, human IgG1, kappa, V domains shown)
VH: EVQLVESGGGLVQPGGSLRLSCAASGFTFSRYVMSWVRQAPGKGLEWVASISSGGRMYYPDTVKGRFTISRDNAKNSLYLQMNSLRAEDTAVYYCARGSIYDGYYVFPYWGQGTLVTVSS
VL: EIVLTQSPATLSLSPGERATLSCSASSSVSSSYLYWYQQKPGQAPRLLIYSTSNLASGIPARFSGSGSGTDFTLTISSLEPEDFAVYYCHQWSTYPPTFGGGTKVEIKR
notes: Humanized human IgG1/human kappa monoclonal antibody; It was tested as drug product in citrate/arginine/methionine/PS80 formulations; also called BG00011; BG11
B1 was tested, and the “Potency, % Binding relative to Reference Standard” value (integrin αvβ6 [1]) was 102%, the “Potency, % Binding relative to Reference Standard” value (integrin αvβ6 [2]) was 98% and the “Potency, % Binding relative to Reference Standard” value (integrin αvβ6 [3]) was 95%. For the same binder, the “Potency, % Binding relative to Reference Standard” value (integrin αvβ6 [4]) was 100%, the “Potency, % Binding relative to Reference Standard” value (integrin αvβ6 [5]) was 106% and the “DELFIA Blocking - Binding relative to Reference Standard” value (integrin αvβ6 [6]) was 100%. The “DELFIA Blocking - Binding relative to Reference Standard” value (integrin αvβ6 [7]) was 101% and the “DELFIA Blocking - Binding relative to Reference Standard” value (integrin αvβ6 [8]) was 96%.
